Experimental data taken from patent US6716624B2, “GSK3 polypeptides” (Chiron Corporation, priority 2000, dated 2004).

How the values were obtained:
[1] = tested on: prephosphorylated SGSG-linked CREB peptide; experiment: Kinase specific activity of truncated GSK3β polypeptides (P81 filter assay); format: biochemical; conditions: 5.9 μM CREB peptide, 25 μM ATP, 20 min at room temperature
Description: A reaction mixture was prepared containing 5.9 μM prephosphorylated SGSG-linked CREB peptide (Wang et al., Anal. Biochem., 220:397-402 (1994))μ in reaction buffer (5 mM Tris, pH 7.5, 5 mM DTT; 1 mM MgCl2, 0.01% BSA) containing the desired amount of truncated GSK3 polypeptide. ATP was added (specific activity 5.3 Ci/mmol) to 25 μM final concentration and the mixture was incubated for 20 min. at room temperature. The reaction was stopped by transferring 30 μl onto a P81 filter disc (Whatman). The disc was washed four times in 150 ml of 75 mM H3PO4 for 5 minute each. The filter was air dried and counted under 5 ml scintillation fluid. The specific activity was counted by determining the ratio of counts (in cpm) by the mass of GSK3 in the reaction (in μg).

[2] = Concentration of the protein stock (solubility of the construct); format: physicochemical; conditions: concentrated protein stock
Description: The GSK3 constructs of the invention are capable of crystallization. […] Potential to crystallize is measured using a variety of assays including specific activity, aggregation, microheterogeneity. (See, for example, Table 1). These parameters are indicative of the purity of the preparation and of the solubility of the construct. The specific activity is also a preferred assay for detecting binding of an inhibitor to the correct binding site of the GSK3 construct. Another suitable method is fluorescence polarization. Briefly, a putative inhibitor, with an attached fluorophore, tumbles freely in solution. Thus when the fluorophore is excited by polarized light, the emitted light which is produced after a finite delay now has random polarity and the emitted light is no longer polarized. In the presence of a GSK3 construct with an intact inhibitor binding site, the tumbling rate is slowed sufficiently to ensure that, even though the light emission is delayed with respect to the excitation, the fluorophore has only moved very slightly. Thus, the excited light maintains polarization. A measurement of fluorescence polarization therefore indicates whether or not the GSK3 construct is suitable for identifying and optimizing an inhibitor. […] GSK3 constructs may not retain kinase activity, but their inhibitor binding can still be assessed using fluorescence polarization assays. […]

[3] = Aggregation of the purified construct on storage; format: physicochemical
Description: The GSK3 constructs of the invention are capable of crystallization. […] Potential to crystallize is measured using a variety of assays including specific activity, aggregation, microheterogeneity. (See, for example, Table 1). These parameters are indicative of the purity of the preparation and of the solubility of the construct. The specific activity is also a preferred assay for detecting binding of an inhibitor to the correct binding site of the GSK3 construct. Another suitable method is fluorescence polarization. Briefly, a putative inhibitor, with an attached fluorophore, tumbles freely in solution. Thus when the fluorophore is excited by polarized light, the emitted light which is produced after a finite delay now has random polarity and the emitted light is no longer polarized. […] A measurement of fluorescence polarization therefore indicates whether or not the GSK3 construct is suitable for identifying and optimizing an inhibitor. […] GSK3 constructs may not retain kinase activity, but their inhibitor binding can still be assessed using fluorescence polarization assays.
A truncated GSK3 polypeptide of the invention can be selected on the basis of one or more parameters. […] The potential of a polypeptide to form crystals can be evaluated on the basis of specific activity, purity, homogeneity, mass spectrometry, aggregation, and dynamic light scattering. […]

Construct 557: Truncated human GSK3β, M1 to I384, with N-terminal Glu-tag and Gly linker (SEQ ID NO:2)
Mean Specific Activity ([1]; mean of N assays): 4.3 × 10^7 cpm/μg | specific activity ([1]; stated in the text): 4.3×10^7 cpm/μg | Concentration [2]: 12700 µg/mL | Aggregation at 4 Degrees ([3]; 4 degrees, > 2 weeks): none @ > 2 | Aggregation at RT ([3]; room temperature, time at which aggregation occurs): overnight
